Test results: article PMC11177981 (2024)

B1: FLAG-GLUT4 (human full length) expressed in HEK293T cells [human] / retinoic acid inducible gene I (RIG-I), endogenous in HEK293T cells [human (endogenous in HEK293T)] (parent complex)
chain 1: MPSGFQQIGSEDGEPPQQRVTGTLVLAVFSAVLGSLQFGYNIGVINAPQKVIEQSYNETWLGRQGPEGPSSIPPGTLTTLWALSVAIFSVGGMISSFLIGIISQWLGRKRAMLVNNVLAVLGGSLMGLANAAASYEMLILGRFLIGAYSGLTSGLVPMYVGEIAPTHLRGALGTLNQLAIVIGILIAQVLGLESLLGTASLWPLLLGLTVLPALLQLVLLPFCPESPRYLYIIQNLEGPARKSLKRLTGWADVSGVLAELKDEKRKLERERPLSLLQLLGSRTHRQPLIIAVVLQLSQQLSGINAVFYYSTSIFETAGVGQPAYATIGAGVVNTVFTLVSVLLVERAGRRTLHLLGLAGMCGCAILMTVALLLLERVPAMSYVSIVAIFGFVAFFEIGPGPIPWFIVAELFSQGPRPAAMAVAGFSNWTSNFIIGMGFQYVAEAMGPYVFLLFAVLLLGFFIFTFLRVPETRGRTFDQISAAFHRTPSLLEQEVKPSTELEYLGPDEND
chain 2: MTTEQRRSLQAFQDYIRKTLDPTYILSYMAPWFREEEVQYIQAEKNNKGPMEAATLFLKFLLELQEEGWFRGFLDALDHAGYSGLYEAIESWDFKKIEKLEEYRLLLKRLQPEFKTRIIPTDIISDLSECLINQECEEILQICSTKGMMAGAEKLVECLLRSDKENWPKTLKLALEKERNKFSELWIVEKGIKDVETEDLEDKMETSDIQIFYQEDPECQNLSENSCPPSEVSDTNLYSPFKPRNYQLELALPAMKGKNTIICAPTGCGKTFVSLLICEHHLKKFPQGQKGKVVFFANQIPVYEQQKSVFSKYFERHGYRVTGISGATAENVPVEQIVENNDIIILTPQILVNNLKKGTIPSLSIFTLMIFDECHNTSKQHPYNMIMFNYLDQKLGGSSGPLPQVIGLTASVGVGDAKNTDEALDYICKLCASLDASVIATVKHNLEELEQVVYKPQKFFRKVESRISDKFKYIIAQLMRDTESLAKRICKDLENLSQIQNREFGTQKYEQWIVTVQKACMVFQMPDKDEESRICKALFLYTSHLRKYNDALIISEHARMKDALDYLKDFFSNVRAAGFDEIEQDLTQRFEEKLQELESVSRDPSNENPKLEDLCFILQEEYHLNPETITILFVKTRALVDALKNWIEGNPKLSFLKPGILTGRGKTNQNTGMTLPAQKCILDAFKASGDHNILIATSVADEGIDIAQCNLVILYEYVGNVIKMIQTRGRGRARGSKCFLLTSNAGVIEKEQINMYKEKMMNDSILRLQTWDEAVFREKILHIQTHEKFIRDSQEKPKPVPDKENKKLLCRKCKALACYTADVRVIEECHYTVLGDAFKECFVSRPHPKPKQFSSFEKRAKIFCARQNCSHDWGIHVKYKTFEIPVIKIESFVVEDIATGVQTLYSKWKDFHFEKIPFDPAEMSK

Variants of: B1
Experiment: co-IP (IP: FLAG) with immunoblot band densitometry; HEK293T cells; FLAG-GLUT4 plasmids, endogenous RIG-I; Vector, pcDNA3.1-FLAG; read off a plot

response	Variant
~1.1 band density ratio (RIG-I/GLUT4)	chain 1 R169A
